tested on: Escherichia coli TOP10; test: shrunken log2 fold change of peptide-encoding DNA abundance (4.5 h post-induction vs induction); higher = less antimicrobial activity (less host growth inhibition); details: time post-induction: 4.5 h; library: site-saturation at positions 5, 18, 19, 20
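Also: peptides expressed intracellularly from a pBAD plasmid library in pooled LB shake-flask culture, induced with 0.3% L-arabinose, DNA abundance read by NGS, three biological replicates, DESeq2 with apeglm shrinkage.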

Row | Sequence | shrunken log2 fold change
1 | RRIRFRPPRLPRPRPRPKTTPRP | 0.142
2 | RRIRLRPPRLPRPRPRPMVTPRP | 0.0098
3 | RRIRCRPPRLPRPRPRPDWLPRP | -0.0386
4 | RRIRERPPRLPRPRPRPSQFPRP | -0.474
5 | RRIRIRPPRLPRPRPRPRCSPRP | -0.137
6 | RRIRIRPPRLPRPRPRPFHQPRP | -0.961
7 | RRIRTRPPRLPRPRPRPMDPPRP | -0.107
8 | RRIRWRPPRLPRPRPRPHNFPRP | -0.0122
9 | RRIRARPPRLPRPRPRPMPWPRP | 0.483
10 | RRIRCRPPRLPRPRPRPAVWPRP | 0.617
11 | RRIRRRPPRLPRPRPRPKGRPRP | 0.135
12 | RRIRFRPPRLPRPRPRPAVDPRP | 0.43
13 | RRIRMRPPRLPRPRPRPYWCPRP | -0.0737
14 | RRIRWRPPRLPRPRPRPFKAPRP | 0.0343
15 | RRIRMRPPRLPRPRPRPIGQPRP | 0.00911
16 | RRIRGRPPRLPRPRPRPTGLPRP | 0.885
17 | RRIRHRPPRLPRPRPRPHHGPRP | -0.755
18 | RRIRIRPPRLPRPRPRPNPVPRP | 0.087
19 | RRIRHRPPRLPRPRPRPWAIPRP | 0.112
20 | RRIRDRPPRLPRPRPRPREGPRP | 1.01
21 | RRIRCRPPRLPRPRPRPQKTPRP | -0.162
22 | RRIRVRPPRLPRPRPRPCPCPRP | -0.151

Row | Sequence | shrunken log2 fold change
23 | RRIRLRPPRLPRPRPRPLWKPRP | -0.0337
24 | RRIRQRPPRLPRPRPRPDWMPRP | 0.0723
25 | RRIRWRPPRLPRPRPRPLYNPRP | -0.78
26 | RRIRERPPRLPRPRPRPYANPRP | 0.0234
27 | RRIRCRPPRLPRPRPRPHVGPRP | 0.0562
28 | RRIRLRPPRLPRPRPRPGFKPRP | 0.0325
29 | RRIRARPPRLPRPRPRPEQVPRP | 0.453
30 | RRIRQRPPRLPRPRPRPYFFPRP | -0.706
31 | RRIRCRPPRLPRPRPRPYMNPRP | -0.99
32 | RRIRKRPPRLPRPRPRPPHLPRP | 0.332
33 | RRIRERPPRLPRPRPRPGRQPRP | 0.0676
34 | RRIRQRPPRLPRPRPRPWGPPRP | 0.0893
35 | RRIRPRPPRLPRPRPRPELGPRP | 0.24
36 | RRIRNRPPRLPRPRPRPPQTPRP | 0.424
37 | RRIRYRPPRLPRPRPRPDQFPRP | -0.435
38 | RRIRHRPPRLPRPRPRPEVGPRP | 0.0518
39 | RRIRYRPPRLPRPRPRPEKHPRP | -0.322
40 | RRIRLRPPRLPRPRPRPWSPPRP | -0.303
41 | RRIRVRPPRLPRPRPRPNDGPRP | -0.133
42 | RRIRNRPPRLPRPRPRPGHPPRP | -0.0813
43 | RRIRTRPPRLPRPRPRPMISPRP | -0.0443
44 | RRIRYRPPRLPRPRPRPCIPPRP | -0.11

Row | Sequence | shrunken log2 fold change
45 | RRIRRRPPRLPRPRPRPTWFPRP | 0.0478
46 | RRIRYRPPRLPRPRPRPNRGPRP | -0.124
47 | RRIRYRPPRLPRPRPRPTSQPRP | 0.054
48 | RRIRNRPPRLPRPRPRPVGCPRP | 0.618
49 | RRIRDRPPRLPRPRPRPLMGPRP | 0.0162
50 | RRIRDRPPRLPRPRPRPLMDPRP | 0.172
51 | RRIRVRPPRLPRPRPRPECAPRP | 0.376
52 | RRIRYRPPRLPRPRPRPEKPPRP | -0.00145
53 | RRIRCRPPRLPRPRPRPERHPRP | -0.0311
54 | RRIRVRPPRLPRPRPRPKSPPRP | 0.272
55 | RRIRQRPPRLPRPRPRPVFLPRP | -0.218
56 | RRIRQRPPRLPRPRPRPMKEPRP | -0.0272
57 | RRIRFRPPRLPRPRPRPPWCPRP | 0.0236
58 | RRIRLRPPRLPRPRPRPHLPPRP | -0.353
59 | RRIRLRPPRLPRPRPRPCDVPRP | -0.255
60 | RRIRSRPPRLPRPRPRPMRDPRP | 0.0126
61 | RRIRLRPPRLPRPRPRPHPGPRP | 0.242
62 | RRIRCRPPRLPRPRPRPCTSPRP | -0.647
63 | RRIRPRPPRLPRPRPRPFNYPRP | -0.269
64 | RRIRARPPRLPRPRPRPQIRPRP | 0.0717
65 | RRIRCRPPRLPRPRPRPWEYPRP | 0.0155
66 | RRIRQRPPRLPRPRPRPKYAPRP | -0.285

Row | Sequence | shrunken log2 fold change
67 | RRIRQRPPRLPRPRPRPISGPRP | -0.018
68 | RRIRYRPPRLPRPRPRPHHHPRP | -1.09
69 | RRIRTRPPRLPRPRPRPQDKPRP | -0.658
70 | RRIRERPPRLPRPRPRPKMIPRP | -0.399
71 | RRIRMRPPRLPRPRPRPYGMPRP | 0.162
72 | RRIRWRPPRLPRPRPRPECGPRP | 1.37
73 | RRIRQRPPRLPRPRPRPQHRPRP | -0.0379
74 | RRIRIRPPRLPRPRPRPLNLPRP | -0.597
75 | RRIRERPPRLPRPRPRPCAQPRP | -0.00638
76 | RRIRSRPPRLPRPRPRPVPYPRP | -0.248
77 | RRIRTRPPRLPRPRPRPDVKPRP | -0.521
78 | RRIRSRPPRLPRPRPRPIFEPRP | 0.0577
79 | RRIRVRPPRLPRPRPRPHCKPRP | -0.299
80 | RRIRMRPPRLPRPRPRPHTDPRP | 0.0445
81 | RRIRLRPPRLPRPRPRPECWPRP | 0.587
82 | RRIRMRPPRLPRPRPRPPQPPRP | 1.37
83 | RRIRNRPPRLPRPRPRPDNPPRP | -0.168
84 | RRIRYRPPRLPRPRPRPVDDPRP | -0.443
85 | RRIRCRPPRLPRPRPRPRWLPRP | 0.313
86 | RRIRARPPRLPRPRPRPSVKPRP | 0.133
87 | RRIRARPPRLPRPRPRPEGYPRP | 0.582
88 | RRIRVRPPRLPRPRPRPKRLPRP | 0.132

Row | Sequence | shrunken log2 fold change
89 | RRIRMRPPRLPRPRPRPNVEPRP | 0.0231
90 | RRIRRRPPRLPRPRPRPATDPRP | 0.204
91 | RRIRTRPPRLPRPRPRPQWVPRP | 0.143
92 | RRIRVRPPRLPRPRPRPQYWPRP | -0.265
93 | RRIRNRPPRLPRPRPRPRAAPRP | 0.601
94 | RRIRPRPPRLPRPRPRPAASPRP | -0.0885
95 | RRIRGRPPRLPRPRPRPVPTPRP | 0.865
96 | RRIRVRPPRLPRPRPRPDVSPRP | -0.0827
97 | RRIRWRPPRLPRPRPRPAHDPRP | 0.0987
98 | RRIRYRPPRLPRPRPRPANKPRP | -0.278
99 | RRIRWRPPRLPRPRPRPFTGPRP | 0.0256
100 | RRIRDRPPRLPRPRPRPRKAPRP | -0.0143
101 | RRIRYRPPRLPRPRPRPQDLPRP | 0.0284
102 | RRIRGRPPRLPRPRPRPMCAPRP | 1.88
103 | RRIRSRPPRLPRPRPRPTQSPRP | 0.449
104 | RRIRTRPPRLPRPRPRPGQKPRP | 0.0923
105 | RRIRDRPPRLPRPRPRPNDCPRP | -0.0197
106 | RRIRERPPRLPRPRPRPCVMPRP | -0.41
107 | RRIRFRPPRLPRPRPRPQHYPRP | -1.01
108 | RRIRPRPPRLPRPRPRPVLYPRP | -0.335
109 | RRIRVRPPRLPRPRPRPWEAPRP | 0.268

From the supplement of paper PMC9112550, “Optimization of the antimicrobial peptide Bac7 by deep mutational scanning” (BMC Biology, 2022)
